Measurements as given in patent publication US20030175712A1 (published 2003).
Residue numbers refer to the chain shown, from its start.

T1: Cdc24-m1p (1-288 aa), GAL4 two-hybrid fusion (S. cerevisiae, UniProt P11433 1-288)
T1 construct: also called cdc24-m1 (1-288)
T1 sequence: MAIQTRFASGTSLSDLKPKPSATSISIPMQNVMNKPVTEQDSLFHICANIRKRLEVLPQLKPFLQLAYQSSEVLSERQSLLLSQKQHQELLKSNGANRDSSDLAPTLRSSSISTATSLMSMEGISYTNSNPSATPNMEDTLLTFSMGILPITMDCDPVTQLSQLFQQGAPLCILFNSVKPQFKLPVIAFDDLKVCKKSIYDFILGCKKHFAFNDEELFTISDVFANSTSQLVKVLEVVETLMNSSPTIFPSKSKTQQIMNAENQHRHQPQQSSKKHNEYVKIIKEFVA

T2: Cdc24-m3p (1-288 aa), GAL4 two-hybrid fusion (S. cerevisiae, UniProt P11433 1-288)
T2 sequence: T1 sequence with F189P

T3: GSTCdc24p (1-127 aa) (S. cerevisiae, UniProt P11433 1-127)
T3 construct: not shown: glutathione-S-transferase as encoded by pGEX-2T (Pharmacia)
T3 sequence (looked up): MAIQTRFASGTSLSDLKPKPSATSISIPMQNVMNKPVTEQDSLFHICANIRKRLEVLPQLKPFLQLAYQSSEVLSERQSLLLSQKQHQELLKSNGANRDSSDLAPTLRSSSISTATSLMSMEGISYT

B1: Ste4p, GAL4 two-hybrid fusion (other, not shown: small tags and cut ends)
chain: MAHQMDSITYSNNVTQQYIQPQSLQDISAVEEEIQNKIEAARQESKQLHAQINKAKHKIQDASLFQMANKVTSLTKNKINLKPNIVLKGHNNKISDFRWSRDSKRILSASQDGFMLIWDSASGLKQNAIPLDSQWVLSCAISPSSTLVASAGLNNNCTIYRVSKENRVAQNVASIFKGHTCYISDIEFTDNAHILTASGDMTCALWDIPKAKRVREYSDHLGDVLALAIPEEPNLENSSNTFASCGSDGYTYIWDSRSPSAVQSFYVNDSDINALRFFKDGMSIVAGSDNGAINMYDLRSDCSIATFSLFRGYEERTPTPTYMAANMEYNTAQSPQTLKSTSSSYLDNQGVVSLDFSASGRLMYSCYTDIGCVVWDVLKGEIVGKLEGHGGRVTGVRSSPDGLAVCTGSWDSTMKIWSPGYQ
notes: also called Gβ
B2: His6Ste4p (other)
chain: B1 chain
notes: Expressed in E. coli; migrates as a doublet due to proteolysis; also called Hexahistidine-tagged Ste4p; pTrcSte4; not shown: hexahistidine tag with the leader of the pTrc vector

Tests used:
[1] = biological target: T4, Cdc24p (1-160 aa) fused to GAL4 DBD (S. cerevisiae, UniProt P04386 1-147; P11433 1-160); test: yeast two-hybrid, Cdc24p fragments fused to DBD
T4 construct: also called amino-terminal fragment consisting of the first 160 amino acid residues
Experimental: (§1) Plasmids were transformed into HF7c. For determination of STE18 requirement, PCR-based geene disruption was carried out in PJ69-4A (MATa, trp1-901, leu2-3,112, ura3-52, his3-200, gal4D, gal80D, GAL2-ADE2, LYS2::GAL1-HIS3, met2::GAL7-lacZ)²⁹, replacing the entire STE18 ORF with K. Lactis URA3³⁰. For all two-hybrid experiments, equal amounts of transfonnants were spotted on SC-leu-trp and SC-leu-trp-his plates, identical results were obtained with at least four transformants, and for Dste18 two independent deletion strains. All strains for two-hybrid analyses expressed similar amounts of AD- and DBD- fusion proteins of the expected sizes, as determined by SDS-PAGE and immuno-blotting.
(§2) cdc24-m mutants are defective in mating and Ste4p (Gβ) binding. a, Location of Cdc24p mating mutations. Mating patches show diploids from mating with MATa WT tester. Ste4 2-H patch growth on -leu-trp-his indicates an interaction of Cdc24p (1-288 aa) with Ste4p. Similar results were obtained using a LacZ reporter in strain Y187 (relative Miller Units 100 for Cdc24/Ste4 and 3 for Cdc24-m1/Ste4). b, Two hybrid interactions of Cdc24p. Fror interactions with Ste4p, a fragment of Cdc24p (1-288 aa) was used, however, fill length Cdc24p also interats with Ste4p. c, Region of Cdc24p necessary for Ste4p interaction. […]

[2] = biological target: T1, Cdc24-m1p (1-288 aa), GAL4 two-hybrid …; test: yeast two-hybrid, growth on -leu-trp-his
Experimental: as §1, §2

[3] = biological target: T2, Cdc24-m3p (1-288 aa), GAL4 two-hybrid …; test: yeast two-hybrid, growth on -leu-trp-his
Experimental: as §1, §2

GSTCdc24p (1-127 aa) = biological target: T3, GSTCdc24p (1-127 aa); test: GSH-agarose pull-down from mixed bacterial extracts, immunoblot
Experimental: (§3) A fragment of CDC24 (1-472 aa) in pGEX-2T (Pharmacia) and His₆Ste4p (pTrcSte4) were expressed in E. coli. Cells were resuspended in buffer A (PBS, 0.1% TX-100, Phenyl Methyl Sulfonyl Fluoride (PMSF), leupeptin, chymostatin, pepstatin, aprotinin) and lysed by snap freezing in liquid nitrogen followed by sonicatioin. Insoluble material was removed by centrifuigation (10,000 g). Mixed supernatants (denoted cell extracts) containing His₆Ste4 and GSTCdc24 fusions were incubated with GSH-agarose (Sigma Chemical Co.) at 4° for 1 hr. Resin was washed 3 times with buffer A. Resin samples (referred to as eluates) and extracts were analyzed by SDS-PAGE, immuno-blottinig probed with Omni-probe anti-sera (Santa Cruz), and visualised with enhanced chemiluhniuescence (Amershan).
as §2

GST = biological target: T5, GST (UniProt P08515 1-218 = GST); test: as above
T5 construct: Control; also called GST alone; glutathione-S-transferase
Experimental: as §3, §2

T5 sequence (P08515 whole entry): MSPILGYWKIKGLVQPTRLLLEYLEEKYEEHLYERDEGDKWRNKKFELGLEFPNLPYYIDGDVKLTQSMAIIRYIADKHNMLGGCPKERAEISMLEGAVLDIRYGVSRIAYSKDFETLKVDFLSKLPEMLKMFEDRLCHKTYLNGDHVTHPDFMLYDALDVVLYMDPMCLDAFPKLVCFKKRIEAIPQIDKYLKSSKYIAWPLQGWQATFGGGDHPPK

Row | Binder | binding result [1] | binding result [2] | binding result [3] | binding result (GSTCdc24p (1-127 aa)) | binding result (GST)
1 | B1 | no binding | no binding | no binding | – | –
2 | B2 | – | – | – | no binding | no binding
